Biological target: soluble form of human TNFα (aa 77–233), wild-type (human)
Test: crystal structure; purified TNFα and certolizumab Fab mixed in a 1:1 molar ratio, complex isolated by size exclusion chromatography (20 mM Tris pH 8.0, 300 mM NaCl); hanging-drop crystals at 20 °C; 2.89 Å, three copies in the asymmetric unit

- stoichiometry N: 3
Substance: soluble form of human TNFα (aa 77–233), wild-type (ligand)
